Measurements as given in the supplement of paper PMC10567573.

B1: ZNF449 (parent)
chain: HTGERPYECTVCKKRFTRRSHLIG
B2: KRT13 (parent)
chain: TSSASVTTTSNASGRRTSDVRRP

Variants of: B1
Experiment: protein stability index of a GFP-peptide fusion (GPS, HEK-293T) (PSI 1-6); higher = more stable
Conditions: c terminus: a fixed tail appended
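Note: lentivirally expressed fusions sorted by FACS into six bins by GFP to DsRed ratio, PSI derived from sequencing read proportions per bin multiplied by bin number.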

Protein stability index, by site and new letter:
H1: P 2.59 | Y 2.98 | S 1.85 | G 1.83 | W 2 | F 1.78 | D 2.19 | C 2.48 | V 2.39 | E 2.6 | T 1.7 | A 2.47 | M 2.96 | K 2.6 | L 1.79 | I 1.74
G3: M 2.38 | Y 1.9 | S 2.33 | W 2.43 | A 2.63 | P 2.52 | E 2.26 | H 3.28 | F 2.06 | R 1.73 | I 2.39 | T 2.12 | V 1.82 | D 2.44 | C 3.04 | K 2.2 | Q 3.59 | N 1.85 | L 3.83
T2: K 2.4 | C 1.42 | F 2.08 | V 1.97 | H 3.18 | W 2.13 | N 2.13 | Q 2.24 | S 1.83 | I 1.47 | Y 1.9 | L 2.45 | G 2.55 | R 2.12 | P 1.8 | D 2.23 | M 1.76 | E 2.94 | A 2.85
E4: H 2.17 | T 2.76 | G 1.55 | I 1.66 | N 2.15 | M 2.24 | R 1.96 | V 2.02 | P 2.04 | K 1.7 | A 1.42 | L 1.5 | F 1.9 | D 1.82 | C 2.26 | Q 2.66 | W 1.8 | Y 1.58 | S 2.53
R5: H 2.67 | C 3.5 | G 2.24 | A 1.96 | F 1.76 | E 2.33

Variants of: B2
Experiment: as above
Conditions: c terminus: native

Protein stability index: each site, then its substitutions
R15: E 2.43 | P 1.73 | D 2.25 | C 2.17 | L 2.37 | A 2.17 | T 1.94 | H 2.61 | N 2.6 | K 1.49 | Q 2.53 | F 1.88 | Y 2.03 | I 2.36
T9: E 2.58 | H 3.88 | N 1.81 | D 2.05 | C 1.54 | F 2.13 | V 2.72 | G 1.73 | K 2.19 | P 1.97
V20: D 1.76 | Y 2.38 | Q 2.06 | K 2.73 | H 2.51 | I 4.34 | N 2.13 | E 2.52 | G 2.03 | A 1.63 | C 2.16 | T 4.51 | P 2.31
D19: M 3.59 | T 2.69 | C 2.52 | R 2.08 | P 2.86 | L 2.61 | Y 1.92 | H 1.73 | S 2.07 | N 2.26 | I 2.44 | V 3.02 | K 2.25 | F 2.83
S10: F 2.96 | T 1.6 | V 2.99 | H 2.48 | C 4.58 | Y 1.98 | P 2.11 | D 2.05 | Q 2.12 | E 2.03
R21: V 4.97 | K 5.25 | M 5.27 | C 4.97 | D 5.12 | S 5.41 | T 5.55 | A 5.32 | W 5.35 | N 5.24 | Q 5.75 | F 5.07 | P 5.33 | Y 5.15 | I 4.91 | H 5.55 | L 4.89 | E 5.51
P23: T 4.53 | N 2.27 | Y 4.86 | S 2.36 | E 1.59 | W 4.6 | M 4.45 | G 3.15 | L 4.45 | F 4.92 | K 4.84 | C 2.42 | Q 3.43 | R 3.9 | I 4.47 | H 1.77
S5: T 4.31 | A 2.49 | M 1.88 | E 3.07 | H 3.91 | Q 2.59 | N 2.44 | C 3.15 | I 2.37 | K 1.9 | F 3.27 | G 2.79 | D 2.48
T8: E 3.31 | G 2.26 | K 3.7 | A 3.85 | D 2.08 | F 2.35 | N 2.98 | Q 3.25 | Y 3.44 | P 1.64
T17: C 2.94 | S 2.16 | N 2.15 | Y 2.3 | D 2.62 | M 2.44 | I 3.61 | L 1.45 | E 1.63 | H 2.66
T7: H 2.54 | N 1.45 | D 3.4 | W 3.38 | Q 1.3 | M 3.08 | I 1.93 | A 2.46 | Y 4.47 | G 1.17 | R 2.97 | F 2.24 | P 1.66 | K 2.19 | L 2.23
S18: L 2.03 | D 2.19 | K 1.3 | M 1.77 | Q 2.82 | V 3.51 | G 1.23 | P 2.02 | A 4.56 | T 2.85 | E 2.45 | F 1.56
R22: P 2.62 | L 1.38 | Q 2.71 | A 2.49 | S 1.88 | T 1.84 | Y 1.75 | E 1.75 | W 2.04 | K 2.13 | V 2.08 | D 1.93 | M 3.05 | H 3.45 | N 3.07 | I 2.77
R16: T 3.07 | C 1.27 | D 1.66 | N 2.05 | Y 3.97 | K 1.59 | M 2.14 | P 2.52 | I 2.33 | E 2.08 | G 1.04 | S 2.11 | A 1.65 | W 2.87 | H 2.37 | F 2.27 | Q 1.52
A12: D 3.12 | P 2.25 | F 3.48 | H 3.71 | S 2.19 | I 2.81 | C 3.03 | L 2.53
A4: T 2.02 | S 1.03 | Y 2.51 | W 2.44 | Q 2.03
V6: P 2.51 | S 1.09 | F 1.93 | G 2.71 | L 2.31 | D 2.88 | R 1.97 | K 2.39 | T 3.08 | A 2.14 | N 2.44 | Q 1.69 | C 4.46
S13: L 2.47 | D 1.45 | R 1.4 | A 2.97 | V 3.04 | E 1.7 | P 2.41 | T 5.7 | Q 1.37 | W 1.04 | G 1.7 | K 1.94
N11: V 1.98 | G 2.7 | T 2.74 | D 1.71 | H 1.8 | F 2.92 | I 1.08 | P 1.12 | L 2.98 | A 3.09 | E 3.41 | Y 3.34 | R 2.36 | K 1.86
G14: C 1.75 | R 2.21 | A 3.4 | D 1.88 | E 2.97 | V 2.64 | P 1.88 | M 3.29 | Y 2.32 | Q 2.23 | S 3.57 | N 2.03 | I 2.46 | L 3.71 | T 2.3
